Values of other authors in publication PMC5408752.

Experiments:
[1] = molecular target: NisA precursor (Lactococcus lactis) (UniProt P13068); experiment: isothermal titration calorimetry
[2] = molecular target: NisA leader leader (Lactococcus lactis) (UniProt P13068); experiment: isothermal titration calorimetry
[3] = molecular target: nisin (Lactococcus lactis) (UniProt P13068); experiment: NMR titration

| Kd [1] [µM] | Kd [2] [µM] | Kd [3] [µM] | Substance |
| --- | --- | --- | --- |
| 2 | 3.8 |  | NisC (from UniProt Q03202) |
|  |  | 22 | NisI CTD (from UniProt P42708) |
